T1: recombinant purified cyno IL-12 p70 (cynomolgus monkey)
T1 chain 1: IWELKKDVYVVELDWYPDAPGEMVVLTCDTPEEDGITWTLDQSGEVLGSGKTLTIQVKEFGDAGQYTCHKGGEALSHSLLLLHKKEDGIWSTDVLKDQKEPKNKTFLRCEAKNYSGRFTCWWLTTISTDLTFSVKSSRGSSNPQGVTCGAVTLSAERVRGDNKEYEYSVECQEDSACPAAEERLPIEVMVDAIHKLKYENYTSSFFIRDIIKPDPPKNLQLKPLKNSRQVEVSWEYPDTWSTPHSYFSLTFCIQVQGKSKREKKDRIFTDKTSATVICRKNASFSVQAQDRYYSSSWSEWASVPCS
T1 chain 2: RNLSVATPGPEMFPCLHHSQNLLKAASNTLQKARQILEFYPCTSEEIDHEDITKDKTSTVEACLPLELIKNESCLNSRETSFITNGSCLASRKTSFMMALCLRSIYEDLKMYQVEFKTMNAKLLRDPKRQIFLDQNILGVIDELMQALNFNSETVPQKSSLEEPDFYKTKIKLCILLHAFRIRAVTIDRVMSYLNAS

T2: recombinant purified human IL-12 p70 (human, UniProt P29459 23-219)
T2 sequence 1: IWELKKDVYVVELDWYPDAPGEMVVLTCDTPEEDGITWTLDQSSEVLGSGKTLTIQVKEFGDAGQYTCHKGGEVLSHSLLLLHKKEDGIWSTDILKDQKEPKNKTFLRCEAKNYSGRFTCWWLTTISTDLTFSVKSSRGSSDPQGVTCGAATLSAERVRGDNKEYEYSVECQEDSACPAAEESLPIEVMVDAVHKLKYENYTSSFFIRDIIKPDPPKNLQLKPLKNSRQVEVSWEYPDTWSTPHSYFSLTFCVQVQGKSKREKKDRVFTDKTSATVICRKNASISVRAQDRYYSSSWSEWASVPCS
T2 sequence 2: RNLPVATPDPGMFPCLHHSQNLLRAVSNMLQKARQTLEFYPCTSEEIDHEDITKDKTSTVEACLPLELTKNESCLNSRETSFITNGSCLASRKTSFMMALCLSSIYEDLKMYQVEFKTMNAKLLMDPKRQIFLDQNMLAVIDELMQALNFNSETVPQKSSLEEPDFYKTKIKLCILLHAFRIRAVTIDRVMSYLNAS

T3: recombinant purified mouse IL-12 (Peprotech) (mouse, UniProt P43432 23-335; P43431 23-215)
T3 construct: Bought reagent; also called mu IL-12; murine IL-12
T3 sequence (looked up) 1: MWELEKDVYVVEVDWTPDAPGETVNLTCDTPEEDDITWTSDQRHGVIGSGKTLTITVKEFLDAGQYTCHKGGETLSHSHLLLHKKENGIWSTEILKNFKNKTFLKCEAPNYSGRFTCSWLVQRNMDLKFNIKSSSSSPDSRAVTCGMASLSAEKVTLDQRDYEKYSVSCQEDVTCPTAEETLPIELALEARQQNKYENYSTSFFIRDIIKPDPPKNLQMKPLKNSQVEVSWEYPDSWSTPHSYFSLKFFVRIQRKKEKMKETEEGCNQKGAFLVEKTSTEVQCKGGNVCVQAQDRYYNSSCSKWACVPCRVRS
T3 sequence (looked up) 2: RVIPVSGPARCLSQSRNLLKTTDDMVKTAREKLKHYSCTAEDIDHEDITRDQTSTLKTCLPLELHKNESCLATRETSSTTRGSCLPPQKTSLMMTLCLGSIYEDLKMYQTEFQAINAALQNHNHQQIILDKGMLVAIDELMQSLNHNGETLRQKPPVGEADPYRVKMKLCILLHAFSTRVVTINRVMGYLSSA


What was measured:
[1] = biological target: T1, recombinant purified cyno IL-12 p70; experiment: cell-based or functional assay
[2] = biological target: T2, recombinant purified human IL-12 p70; experiment: cell-based or functional assay
[3] = biological target: T3, recombinant purified mouse IL-12 …; experiment: direct ELISA, plate coated with 5 ug/ml recombinant mouse IL-12
Description: To determine whether the ten monoclonal antibodies described above recognize murine IL-12, two ELISAs were set up. First, a direct ELISA was set up by directly coating ELISA plates with 5 ug/ml of recombinant purified mouse IL-12 (Peprotech). Murine-anti-human IL-12 p40 mAbs were prepared at various concentrations ranging from 3 to 200 ng/ml in PBS containing 0.1% BSA (Sigma, St. Louis, Mo.). 50 μl of each antibody dilution was added to the coated ELISA plate and incubated for 1 hour at room temperature. Wells were washed 3 times with PBS containing 0.05% Tween-20. Anti-mouse IgG-HRP antibody (R&D #HAF007, Minneapolis, Minn.) was diluted 1:2000 in PBS containing 0.1% BSA; 50 ul/well was added and the plates incubated for 1 hour at room temperature. Fifty microliters of TMB solution (Sigma # T0440, St. Louis, Mo.) was added to each well and incubated for 10 minutes at room temperature. The reaction was stopped by addition of 2N sulphuric acid. Plates were read spectrophotmetrically at a wavelength of 450 nm.

[4] = biological target: T2, recombinant purified human IL-12 p70; experiment: SPR (Biacore), mAb captured on anti-mouse IgG Fc, IL-12 p70 as analyte
Description: The BIACORE assay (Biacore, Inc, Piscataway, N.J.) determines the affinity of antibodies with kinetic measurements of on-, off-rate constants. Binding of antibodies to recombinant purified human IL-12 p70 or recombinant purified human IL-12 p40 were determined by surface plasmon resonance-based measurements with a Biacore® 3000 instrument (Biacore® AB, Uppsala, Sweden) using running HBS-EP (10 mM HEPES [pH 7.4], 150 mM NaCl, 3 mM EDTA, and 0.005% surfactant P20) at 25° C. All chemicals were obtained from Biacore® AB (Uppsala, Sweden) or otherwise from a different source as described in the text. Approximately 5000 RU of goat anti-mouse IgG, (Fcγ), fragment specific polyclonal antibody (Pierce Biotechnology Inc, Rockford, Ill.) diluted in 10 mM sodium acetate (pH 4.5) was directly immobilized across a CM5 research grade biosensor chip using a standard amine coupling kit according to manufacturer's instructions and procedures at 25 μg/ml. Unreacted moieties on the biosensor surface were blocked with ethanolamine. Modified carboxymethyl dextran surface in flowcell 2 and 4 was used as a reaction surface. Unmodified carboxymethyl dextran without goat anti-mouse IgG in flow cell 1 and 3 was used as the reference surface. For kinetic analysis, rate equations derived from the 1:1 Langmuir binding model were fitted simultaneously to association and dissociation phases of all eight injections (using global fit analysis) with the use of Biaevaluation 4.0.1 software. Purified antibodies were diluted in HEPES-buffered saline for capture across goat anti-mouse IgG specific reaction surfaces. Mouse antibodies to be captured as a ligand (25 μg/ml) were injected over reaction matrices at a flow rate of 5 μl/min. The association and dissociation rate constants, kₒₙ (unit M⁻¹ s⁻¹) and koff (unit s⁻¹) were determined under a continuous flow rate of 25 μl/min. Rate constants were derived by making kinetic binding measurements at ten different antigen concentrations ranging from 10-200 nM. The equilibrium dissociation constant (unit M) of the reaction between mouse antibodies and recombinant purified human IL-12 p70 or recombinant purified human IL-12 p40 was then calculated from the kinetic rate constants by the following formula: KD=koff/kₒₙ. Binding is recorded as a function of time and kinetic rate constants are calculated.

| Binder | Average IC50 (nM) Cyno IL-12, PHA blast IFN-γ assay [1] [nM] | Average IC50 (nM) Human IL-12, PHA blast IFN-γ assay [2] [nM] | binding result [3] | Kd [4] [nM] | koff [4] [s⁻¹] | kon [4] [M⁻¹ s⁻¹] |
| --- | --- | --- | --- | --- | --- | --- |
| murine anti-human IL-12p40 monoclonal antibody 1D4 (antibody, V domains shown, Murine mAb purified from hybridoma supernatant) VH: QVTLKESGPGILQPSQTLSLTCSFSGFSLRKSVMGVSWIRQPSGKGLEWLAHIYWDDDKYYNPSLKSRLTISKDPSRNQVFLKITSVDTADAATYYCTRRGIRSAMDYWGQGTSVTVSS VL: SVVMTQTPKFLLVSAGDRVTITCKASQSVSNDVAWYQQKPGQSPKLLIYYASNRYTGVPDRFTGSGYGTDFTFIISTVRAEDLAVYFCQQDYNSPWTFGGGTKLEIKR | 0.078 | 0.031 | no binding (tested: 3 to 200 ng/ml mAb) | 0.12 | 2.9e-05 | 250000 |
| murine anti-human IL-12p40 monoclonal antibody 1A6 (antibody, V domains shown, Murine mAb) VH: QVTLKESGPGILKPSQTLSLTCSFSGFSLSTSGMGVSWIRQPSGKGLEWLAHIWWDGDNYYNPSLKSQLTISKDTSRNQVFLRIATVDTADTATYYCARRTRVNYAMDYWGQGTSVTVSS VL: SVVMTQTPKFLLVSAGDRVTITCKASQSVSNDVAWFQQKPGQSPKLLIYYASNRYTGVPDRFTGSGYGTDFTFTISTVQAEDLAVYFCQQDYNSPWTFGGGTKLEIKR | 0.044 | 0.052 | no binding (tested: 3 to 200 ng/ml mAb) | 0.23 | 3.5e-05 | 150000 |
| murine anti-human IL-12p40 monoclonal antibody 1D8 (antibody, V domains shown, Murine mAb) VH: QVQLQQSGAELMKPGASVKISCKATGYTFSSYWIEWVKQRPGHGLEWIGDILPGSGSTNYNEKFKDKATFTADTSFNTAYMQLSSLTSEDSAVYYCATRRFRGLDYWGQGTTLTVSS VL: SIVMTQTPKFLLVSAGDRVTITCKASQSVSNDVAWYQQKSGQSPKLLIYYASNRYTGVPDRFTGSGYGTDFTFTISTVQPEDLAVYFCQQDYTSPFTFGSGTKLEIKR | 1.4 | 0.31 | no binding (tested: 3 to 200 ng/ml mAb) | 0.044 | 2.3e-05 | 510000 |
| murine anti-human IL-12p40 monoclonal antibody 1H6 (antibody, V domains shown, Murine mAb) VH: EVKLVESGGGLVQPGGSRKLSCAASGFTFSDYGMVWVRQAPGKGLEWVAYISSGSSTIHYADTMKGRFTISRDNPKNTLFLQMSSLRSEDTAMYYCARRHYYAMDYWGQGTSVTVSS VL: SFVMTQTPKFLLVSAGDRVTITCKASQSVSNDVAWYQQKPGQSPKLLIYYASNRYTGVPDRFTGTGYGTDFTFTISTVQAEDLAVYFCQQDYTSPFTFGSGTKLEIKR | 1.6 | 0.69 | no binding (tested: 3 to 200 ng/ml mAb) | 0.25 | 9.9e-05 | 430000 |

The next lines start with the values.

| Average IC50 (nM) Cyno IL-12, PHA blast IFN-γ assay [1] [nM] | Average IC50 (nM) Human IL-12, PHA blast IFN-γ assay [2] [nM] | binding result [3] | Kd [4] [nM] | koff [4] [s⁻¹] | kon [4] [M⁻¹ s⁻¹] | Binder |
| --- | --- | --- | --- | --- | --- | --- |
| > 20 | 0.047 | no binding (tested: 3 to 200 ng/ml mAb) | 0.27 | 0.00028 | 1.1e+06 | murine anti-human IL-12p40 monoclonal antibody 7G3 (antibody, V domains shown, Murine mAb) VH: EVQLQQSGAEFVRSGASVKLSCTASGLNIKDYYIHWVKQRPEQVLDWIGWIDPENGYSEYAPRFQDKATMTADTSSNTAYLHLSSLTSEDTAVYYCNPGELARYFDYWGQGTTLTVSS VL: DIVLSQSPATLSVTPGDSVSLSCRASQSISKNLHWYQQKSHESPRLLIKYTSQSISGIPSRFSGSGSGTDFTLSINSVETEDFGMYFCQQSISWPLTFGAGTKLELKR |
|  | 3.4 | no binding (tested: 3 to 200 ng/ml mAb) | 1.2 | 0.00019 | 150000 | murine anti-human IL-12p40 monoclonal antibody 3A11 (antibody, V domains shown, Murine mAb) VH: EVQLQQSGADLEKPGASVKLSCTASGFNIKDTFMHWVKQRPEQGLEWIGRIDPANGHTKYDPKFQGKATITADTSSNTAYLQLSSLTSEDTAVYYCARWGQFGLLWNAMDYWGQGTSVTVSS VL: not shown |
|  | 12 | no binding (tested: 3 to 200 ng/ml mAb) | 4 | 0.0023 | 570000 | murine anti-human IL-12p40 monoclonal antibody 5E8 (antibody, V domains shown, Murine mAb) VH: QIQLVQSGPELKKPGETVKISCKASGYSFTDYSMHWVKQAPGKGLKWMDWINTETGEPTYADDFKGRFAFSLETSASTAYLQINNLKNEDTATYFCSRRRYRAFDYWGQGTTLTVSS VL: SIVMTQSPKFLLVSAGDRVTITCKASQSVSNDVAWYQQKLGQSPKLLIYYASNRYTGVPDRFTGSGYGTDFTFTINTVQAEDLAVYFCQQDYTSPYTFGGGTKLEIQR |
| 0.028 | 0.039 | no binding (tested: 3 to 200 ng/ml mAb) | 0.1 | 1.4e-05 | 130000 | murine anti-human IL-12p40 monoclonal antibody 4B4 (antibody, V domains shown, Murine mAb) VH: QVTLKESGPGILKPSQTLSLTCSLSGFSLSTSGMGVSWIRQPSGKGLEWLAHIWWDGDSYSNPSLRSRLTISRDTSRNQVFLRIATVDTADTATYYCARRTRVNYAMDYWGQGTSVTVSS VL: SVVMTQTPKFLLVSAGDRVTMTCKASQSVSNDVAWFQQKPGQSPKLLIYYASNRYTGVPDRFTGSGYGTDFTFTISTVQAEDLAVYFCQQDYNSPWTFGGGTKLEIKR |
